These results are taken from publication PMC2660430.

B1: Plrx (wild type plasmoredoxin, recombinant) [P. falciparum] / PfSAHH (recombinant S-adenosyl-L-homocysteine hydrolase) [P. falciparum strain 3D7] (parent)
chain 1: MACQVDNPPKTYPNDKTAEYEKYANYMNYLYYYQNNELKKIDSSYFKDKYLGLFFGASWCKYCVTFIDSLNIFKKNFPNVEIIYIPFDRTYQEYQSFLKNTNFYALPFDNYLYICKKYQIKNLPSFMLITPNNNILVKDAAQLIKTDEYINNLKSLIKNYIIHPKTFQFNNRFFDLFRN
chain 2: MVENKSKVKDISLAPFGKMQMEISENEMPGLMRIREEYGKDQPLKNAKITGCLHMTVECALLIETLQKLGAQIRWCSCNIYSTADYAAAAVSTLENVTVFAWKNETLEEYWWCVESALTWGDGDDNGPDMIVDDGGDATLLVHKGVEYEKLYEEKNILPDPEKAKNEEERCFLTLLKNSILKNPKKWTNIAKKIIGVSEETTTGVLRLKKMDKQNELLFTAINVNDAVTKQKYDNVYGCRHSLPDGLMRATDFLISGKIVVICGYGDVGKGCASSMKGLGARVYITEIDPICAIQAVMEGFNVVTLDEIVDKGDFFITCTGNVDVIKLEHLLKMKNNAVVGNIGHFDDEIQVNELFNYKGIHIENVKPQVDRITLPNGNKIIVLARGRLLNLGCATGHPAFVMSFSFCNQTFAQLDLWQNKDTNKYENKVYLLPKHLDEKVALYHLKKLNASLTELDDNQCQFLGVNKSGPFKSNEYRY
B2: PfTrx1 (wild type thioredoxin) [P. falciparum] / PfSAHH (recombinant S-adenosyl-L-homocysteine hydrolase) [P. falciparum strain 3D7] (parent)
chain 1: MVKIVTSQAEFDSIISQNELVIVDFFAEWCGPCKRIAPFYEECSKTYTKMVFIKVDVDEVSEVTEKENITSMPTFKVYKNGSSVDTLLGANDSALKQLIEKYAA
chain 2: B1 chain 2

Variants of B1 are the subject of one assay. Nature of the assay: SPR. The following applies: with PfSAHH (recombinant S-adenosyl-L-homocysteine hydrolase) [P. falciparum strain 3D7]; Maximum response at end of analyte injection; SAHH on the sensor surface oxidized with 0.5 mM DTNB; 30 µl of analyte, 10 µM in HBS buffer; pre-injection …; parent: 99; read off a plot.
chain 1 C63S: the response (RD (normalized)) was 28.

The variants in the next assay derive from B2. Description: SPR. The following applies: with PfSAHH (recombinant S-adenosyl-L-homocysteine hydrolase) [P. falciparum strain 3D7]; Maximum response at end of analyte injection; SAHH on the sensor surface oxidized with 0.5 mM DTNB; 30 µl of analyte, 10 µM in HBS buffer; pre-injection …; parent: 28; read off a plot.
Consider chain 1 C33S, for which the response (RD (normalized)) came to 97.

Take chain 1 C30S C33S: the response (RD (normalized)) worked out at 21.
